Measurements reported in publication PMC13276077.

B1: 15-N601-15 nucleosome -1 meCpG (nucleosome)
DNA 1: ATGGAACACATTGCACAGGATGTATATATCTGACACGTGCCTGGAGACTAGGGAGTAATCCCCTTGGCGGTTAAAACGCGGGGGACAGCGCGTACGTGCGTTTAAGCGGTGCTAGAGCTGTCTACGACCAATTGAGCGGCCTCGGCACCGGGATTCTCCAGGGCGGCCGCGTATT
DNA 2: AATACGCGGCCGCCCTGGAGAATCCCGGTGCCGAGGCCGCTCAATTGGTCGTAGACAGCTCTAGCACCGCTTAAACGCACGTACGCGCTGTCCCCCGCGTTTTAACCGCCAAGGGGATTACTCCCTAGTCTCCAGGCACGTGTCAGATATATACATCCTGTGCAATGTGTTCCAT
modifications: meCpG at -1
B2: 15-N601-15 nucleosome -61 meCpG (nucleosome)
DNA 1: B1 DNA 1
DNA 2: B1 DNA 2
modifications: meCpG at -61 (GGCACCGGGATT)
B3: 20 bp dsDNA (dsDNA)
DNA 1: AATACGCGGCCGCCCTGGAG
DNA 2: CTCCAGGGCGGCCGCGTATT
B4: 16-N603-30 nucleosome unmethylated (nucleosome)
DNA 1: GAGCCACAAAATCACCGACGCTCACGGGTGCCCAGTTCGCGCGCCCACCTACCGTGTGAAGTCGTCACTCGGGCTTCTAAGTACGCTTAGCGCACGGTAGAGCGCAATCCAAGGCTAACCACCGTGCATCGATGTTGAAAGAGGCCCTCCGTCCTTATTACTTCAAGTCCCTGGGGTACCCGTTTCACTGCCA
DNA 2: TGGCAGTGAAACGGGTACCCCAGGGACTTGAAGTAATAAGGACGGAGGGCCTCTTTCAACATCGATGCACGGTGGTTAGCCTTGGATTGCGCTCTACCGTGCGCTAAGCGTACTTAGAAGCCCGAGTGACGACTTCACACGGTAGGTGGGCGCGCGAACTGGGCACCCGTGAGCGTCGGTGATTTTGTGGCTC
B5: 16-N603-30 nucleosome 91 meCpA (nucleosome)
DNA 1: B4 DNA 1
DNA 2: B4 DNA 2
modifications: asymmetric meCpA at 91
B6: 16-N603-30 nucleosome 81 meCpA (nucleosome)
DNA 1: B4 DNA 1
DNA 2: B4 DNA 2
modifications: asymmetric meCpA at 81

What follows are binders tested against MeCP2 full-length, e2 isoform;histone H1.0;histone octamer (Homo sapiens;Homo sapiens;, UniProt P51608;P07305;P0C0S8;P62807;P68431;P62805 1-486;1-194;2-130;2-126;2-136;2-103, ||H2B T115C;H3.1 C96S;C110A) (assay: EMSA; histone H1.0 pre-bound (chromatosome); 20 mM HEPES pH 7.5, 75 mM NaCl, 125 mM KCl, 50 uM EDTA, 2.5 mM beta-mercaptoethanol, 5% glycerol, BSA, 1.58 uM 47 bp competitor DNA (nucleosome assays); absent w). Details: not given.

Binder | binding result
B1 | no binding
B2 | no binding

The binders below were run against HisMBP-MeCP2 205-257 (DIR) (Homo sapiens, UniProt P51608 205-257) (assay: EMSA; 20 mM HEPES pH 7.5, 75 mM NaCl, 125 mM KCl, 50 uM EDTA, 2.5 mM beta-mercaptoethanol, 5% glycerol, BSA, 1.58 uM 47 bp competitor DNA (nucleosome assays; absent with free DNA), room temperature 30 min). Details: protein: recombinant; tags: His-MBP; label: 5' 6-FAM; blunt.

Binder | Kd [nM]
B3 | 814 ± 50.1

Each binder was assayed against HisMBP-MeCP2 162-309;histone octamer (Homo sapiens;, UniProt P51608;P0C0S8;P62807;P68431;P62805 162-309;2-130;2-126;2-136;2-103, |H2B T115C;H3.1 C96S;C110A) (assay: EMSA; 20 mM HEPES pH 7.5, 75 mM NaCl, 125 mM KCl, 50 uM EDTA, 2.5 mM beta-mercaptoethanol, 5% glycerol, BSA, 1.58 uM 47 bp competitor DNA (nucleosome assays); absent w). Details: not given.

Binder | Kd [nM]
B4 | 94.6
B5 | 103

Each binder was assayed against MeCP2 R133G;histone octamer (Homo sapiens;, UniProt P51608;P0C0S8;P62807;P68431;P62805 1-486;2-130;2-126;2-136;2-103, R133G|H2B T115C;H3.1 C96S;C110A) in the same assay as above. Details: not given.

Binder | Kd [nM]
B1 | 522
B2 | 534
B4 | 188
B5 | 162

Each binder was assayed against MeCP2 MBD;histone octamer (Homo sapiens;, UniProt P51608;P0C0S8;P62807;P68431;P62805 77-167;2-130;2-126;2-136;2-103, |H2B T115C;H3.1 C96S;C110A) in the same assay as above. Details: not given.

Binder | Kd [nM]
B1 | 812
B2 | 809
B4 | 716
B6 | 268
B5 | 85.7

What follows are binders tested against MeCP2 AT-DIRmut;histone octamer (Homo sapiens;, UniProt P51608;P0C0S8;P62807;P68431;P62805 1-486;2-130;2-126;2-136;2-103, R188G;R190G;K254N;K256N;R268Q|H2B T115C;H3.1 C96S;C110A) in the same assay as above. Details: not given.

Binder | Kd [nM]
B1 | 71.3
B2 | 78.6
B4 | 41.5
B6 | 42.2
B5 | 25.3

These binders were tested against HisMBP-MeCP2 205-257 (DIR);histone octamer (Homo sapiens;, UniProt P51608;P0C0S8;P62807;P68431;P62805 205-257;2-130;2-126;2-136;2-103, |H2B T115C;H3.1 C96S;C110A) in the same assay as above. Details: not given.

Binder | Kd [nM]
B4 | 298

These binders were tested against MeCP2 full-length, e2 isoform;histone octamer (Homo sapiens;, UniProt P51608;P0C0S8;P62807;P68431;P62805 1-486;2-130;2-126;2-136;2-103, |H2B T115C;H3.1 C96S;C110A) in the same assay as above. Details: not given.

Binder | Kd [nM]
B1 | 130
B2 | 137
B4 | 94.9
B6 | 65.3
B5 | 57.1
